Assay results published in a protein production outcome set (Wang et al. 2014).

Assay: label from the status in PepcDB records

Row | Sequence | protein production
1 | MRFVLRILKALALLLVLLVITAAGWLFIRPPELLRVGDGYAAKIVCSNVFIAGREAEDVLHDDVQAPGNPLLRLLRVSVDRDNDRVTARFMGLFAPSYALYRGAFGCTSVPDGNFEAAAKAAPFDPPAKMQANDALWPEGEGTGNPADGKIAALLSDAGVAGPAMRAIVVVRNGRIVTEAYGPGFSAKTPLIGWSMTKTVNATILGRLMLGGKISFDDDNLLAQWKNDARAKIKVSDLLGMESGLAFNENYGDVADVTRMLYLDPDMVSLPAGAPMEAAPGQRFRYSSGTAVLLSRIWMDRVGNAQAAFSYPHDALFAPLGMTSAVFELDARGTFAGSSYLYATAHDWARFGQFLLQDGVWNGQRLLPEGFVGAMRTPTAASNGRYSQGQAWLSPGRGSSAGAGLPEDTFWLTGHDGQSVAIVPSANLVVVRLGLTPSRLGYQPQTLLKAILAALPQSGAQQQAGSQRQAQPQP | failed
2 | MPFRTPNIANMTDKKFLPQLDENLPTDVFFHYFFLEAKTETLSHSHPWGQLHLIKQGRLEMEVDKQKMFCPANYAIWTPAHLLHRAFNHNDVEYCAINIEFELSQKLPTSACMFPLTPLLRAIVDDLVERQTTEVLSTEDKYLSHVLIERLSKTNPIENYLPFTDDKLLAPILMQLQENPADDSSLEIWAKRVFSTERTLARRFQKELKMSFNDWRQRAKLAKAMVLLKDAISINEIAYQLGYSQGSSFIKMFRKHTGVTPEQFRKEQQGK | failed
3 | MVLKGDAKRIVAMSSTHIAMLDAIGEVRCITGVSGIDYISNPDIQARRDSIGDVGYEGNINYELLLSLDPDLVLLYGVNGASAMESKLEELDIPFMYVGDYLEESPLGKAEWMVVLSEVTGKREKGEKAFAAIPVRYNALKKKVADSTLGLEHHHHHH | not failed
4 | MGDMIFGILTWLPGLILAITLHEAAHGYVASALGDQTARLLGRVTLNPIRHVDPFGTLVLPGLLFLVGAPFLFGWAKPVPVDYRNLRHPKRDMAWVALAGPGMNIFLAVVSAAALHGALLLPDPAADWLITTLQKSVLINCVLAVFNMIPVPPLDGGRVLVGILPMRAAVVVARMERVGMLALIGVIFLLPLALSQFGVDFDPFSRIIGPVVRALLGAVYTTAGIPLF | failed
5 | MKPRDTRVKPGSRVSLADWHTDGDAFVGKDKAASMARLDDDRVRLEELQELLYAEGKHRLLVVLQAMDTAGKDSTIRHVFRGVDPLGVRVANFGVPSTHELRHDYLWRVHPHVPASGEIAIFNRSHYEDVLVPRVNGAIGHAECERRYRQINDFERMLSETGTTIRKFYLHISKDEQKKRLEARRDTPKKRWKFQPGDLAVRAQWDDYRAAYDALLSATSTRHAPWHVVPADDKLARNLIVSALLIEALEGLDMRYPEPVAGVAGTPII | not failed
6 | MATYNYPEFGAGLWHFANYIDRYAVDGYGPALSTIDQINAAKEVGELSYVDLPYPFTPGVTLSEVKDALKDAGLKAIGITPEIYLQKWSRGAFTNPDPAARAAAFELMHESAGIVRELGANYVKVWPGQDGWDYPFQVSHKNLWKLAVDGMRDLAGANPDVKFAIEYKPREPRVKMTWDSAARTLLGIEDIGLDNVGVLLDFGHALYGGESPADSAQLIIDRGRLFGMDVNDNLRGWDDDLVVGTVHMTEIFEFFYVLKINNWQGVWQLDQFPFRENHVEAAQLSIRFLKHIYRALDKLDIPALQAAQEAQNPLQAQRIVQDALLSSITVSE | not failed
7 | MSLTNTKTGFSVKDILDLPDTNDEEGSITGTEEDTEGSEATKTPGVLVQSPLENVQNLPLKNPFYDNSDNPYTRWLATTDSIQYSLHGLSANSQDTSAKSPEPSADESPDNDKETSSNGSDSGKKQKEGALFQGTNLRTRAPV | failed
8 | MRVLHETTQELANWQYYFAIAVFLITYAIIISEKINRAVIALLGAALMVIMGVVDLHNAFTKHIEWGTITLLIGMMILVNITSKSGVFQYVAIKAAKGAQGNPIKILISLSLLTALGSAFLDNVTTVLLVVPVTLSITRILQVNPVPYLLSEIIFSNIGGTATLIGDPPNIMIGSANKHLDFNAFLLNLAPIVIIIIAVTAAILYFMYRKQLIADPVQVKKLMSLDEKQYIKDPVLMKKSLTVLGLTIVGFMTHSIFHVDAAIIALTGATVLMLIGVKEHEIEEVFASVEWVTIFFFAGLFVLVGGLIDIGLIKMLAQKVIGITGGDISYASILILWVSGIASATIDNIPFVATMIPLINDMAVGLGLSPADAQIDVLWWALALGACLGGNGTLIGASANVIVAGIASREGHKFSYMDFLKVGFPIMIVSLIISHIYIYVRYLM | failed
